Our source for the NF-kB-mediated transcription of luciferase (pNF-κB-Luc) in NIH3T3 cells co-transfected with the FOXP3 isoform; level left, induction without FOXP3 set 100% and NFAT-mediated transcription of luciferase (pNFAT-TA-Luc) in NIH3T3 cells co-transfected with the FOXP3 isoform; induction without FOXP3 set 100% values is PMC2699478.

In assay [1] the target is NF-kB (mouse (endogenous in NIH3T3)).
The target in assay [2] is NFAT (mouse (endogenous in NIH3T3)) (UniProt Q60591).
UniProt Q60591, sequence (Q60591 whole entry): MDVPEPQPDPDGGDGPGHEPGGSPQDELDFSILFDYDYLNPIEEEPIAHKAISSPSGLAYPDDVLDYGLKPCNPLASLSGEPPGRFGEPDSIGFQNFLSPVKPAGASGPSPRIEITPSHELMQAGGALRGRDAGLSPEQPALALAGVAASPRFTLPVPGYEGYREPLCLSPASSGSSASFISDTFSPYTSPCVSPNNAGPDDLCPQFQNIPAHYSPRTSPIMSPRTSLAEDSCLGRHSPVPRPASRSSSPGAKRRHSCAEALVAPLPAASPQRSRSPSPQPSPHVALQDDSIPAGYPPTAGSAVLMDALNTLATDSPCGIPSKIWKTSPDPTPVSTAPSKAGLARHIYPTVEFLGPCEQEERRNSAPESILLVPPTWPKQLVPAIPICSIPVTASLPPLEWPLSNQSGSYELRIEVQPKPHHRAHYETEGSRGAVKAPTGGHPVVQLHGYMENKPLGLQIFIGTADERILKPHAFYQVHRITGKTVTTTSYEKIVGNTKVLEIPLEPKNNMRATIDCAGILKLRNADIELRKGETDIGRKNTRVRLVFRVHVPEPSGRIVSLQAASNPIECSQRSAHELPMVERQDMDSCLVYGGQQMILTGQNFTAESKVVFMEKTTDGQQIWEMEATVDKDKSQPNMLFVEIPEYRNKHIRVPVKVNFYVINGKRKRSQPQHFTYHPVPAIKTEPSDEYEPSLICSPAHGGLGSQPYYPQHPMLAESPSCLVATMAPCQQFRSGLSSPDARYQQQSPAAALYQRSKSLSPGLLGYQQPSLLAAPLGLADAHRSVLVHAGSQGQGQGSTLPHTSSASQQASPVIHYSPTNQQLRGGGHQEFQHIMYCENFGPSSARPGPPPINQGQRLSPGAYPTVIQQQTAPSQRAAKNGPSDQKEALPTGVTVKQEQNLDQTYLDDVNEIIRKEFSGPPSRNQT

The substance FOXP3Δ2 (natural protein) registered an NF-kB-mediated transcription of luciferase (pNF-κB-Luc) in NIH3T3 cells co-transfected with the FOXP3 isoform; level left, induction without FOXP3 set 100% in assay [1] of 9%. The same substance displayed an NFAT-mediated transcription of luciferase (pNFAT-TA-Luc) in NIH3T3 cells co-transfected with the FOXP3 isoform; induction without FOXP3 set 100% in assay [2] of 50%.
